Measured values published in US20230330254A1 (Regeneron, published 2023).
Residue numbers refer to the chain shown, from its start.

B1: COMP Anti-GLP1R mAb1 conjugated to LP4 (antibody, human IgG4 S228P, kappa, V domains shown)
VH: QVTLKESGPGILQPSQTLSLTCSFSGFSLSTSGTGVGWIRQPSGKGLEWLSHIWWDDVKRYNPALKSRLTISRDTSYSQVFLRIASVDTADTATYYCARILDGTGPMDYWGQGTSVTVSS
VL: QIVLTQSPAIMSASPGEKVTMTCSASSRVTYMHWYQQRSGTSPKRWIYDTSKLASGVPARFSGSGSGTSYSLTISSMEAEDAATYYCQQWGNNPQYTFGGGTRLEIKR
modifications: azido-PEG3-amine on the Gln of the N-terminal Q-tag LLQGSG, clicked to LP4 (DIBAC-suc-PEG24-P9)
B2: COMP Anti-GLP1R mAb1 conjugated to LP2 (antibody, human IgG4 S228P, kappa, V domains shown)
VH: B1 VH
VL: B1 VL
modifications: azido-PEG3-amine on the Gln of the N-terminal Q-tag LLQGSG, clicked to LP2 (DIBAC-suc-PEG8-P9)
B3: COMP Anti-GLP1R mAb1 conjugated to LP3 (antibody, human IgG4 S228P, kappa, V domains shown)
VH: B1 VH
VL: B1 VL
modifications: azido-PEG3-amine on the Gln of the N-terminal Q-tag LLQGSG, clicked to LP3 (DIBAC-suc-PEG12-P9)
B4: COMP Anti-GLP1R mAb1 conjugated to LP1 (antibody, human IgG4 S228P, kappa, V domains shown)
VH: B1 VH
VL: B1 VL
modifications: azido-PEG3-amine on the Gln of the N-terminal Q-tag LLQGSG, clicked to LP1 (DIBAC-suc-PEG4-P9)
B5: REGN9278-M3190 (antibody, human IgG4 S228P, kappa, V domains shown)
VH: QVQLQQWGAGLLKPSETLSLTCAVYGGSFSGYYWSWIRQPPGKGLEWIGEINHAGSTNYNPSLKSRITISVDTSKNQFSLKLSSVTAADTAVYYCARGWYYGSGSYHRNWFDPWGQGTLVTVSS
VL: EIVLTQSPGTLSLSPGERATLSCRASQSVYYSYLAWYQQKPGQAPRLLIYGASNRATGIPDRFSGSGSGTDFTLTISRLEPEDFAVYYCQQYGNSPWTFGQGTKVEIKR
modifications: linker-payload M3190 (LP11) on Gln 3 of the N-terminal Q-tag LLQGSG
notes: antibody-tethered drug conjugate; also called REGN9278 ATDC
B6: REGN7988-M3190 (antibody, human IgG4 S228P, kappa, V domains shown)
VH: QVQLVESGGGVVQPGRSLRLSCAASGFTFSGYGIHWVRQAPGKGLVWVAVIWYDGSFKYYADSVKGRFTISRDNSKNTLYLQMNSLRAEDTAVYYCARGDSSSSGRYYYYGMDVWGQGTTVTVSS
VL: DIQMTQSPSSLSASVGDRVTITCRASQGIRNDLGWYQQKPGTAPKRLIFAASSLQSGVPSRFSGSGSGTEFTLTISSLQPEDFATYYCLQHNNYPPTFGGGTKVEIKR
modifications: linker-payload M3190 (LP11) on Gln 3 of the N-terminal Q-tag LLQGSG
B7: H4H30484P2 (antibody, V domains shown)
VH: EVQLVESGGGLVQPGGSLKLSCAASGFTFSGSAMHWVRQASGKGLEWVGRITSKANSYATAYDASVKGRFTISRDDSKNTAYLQMNSLKTEDTAVYYCTRQRFLEFLFLDYWGQGTLVTVSS
VL: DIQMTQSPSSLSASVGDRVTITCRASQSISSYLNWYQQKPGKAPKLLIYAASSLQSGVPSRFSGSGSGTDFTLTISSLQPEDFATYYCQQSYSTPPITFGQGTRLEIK
notes: parental antibody without Q-tag; also called parent of REGN5619
B8: REGN8052 (antibody, V domains shown)
VH: QVQLVESGGGVVQPARSLRLSCAASGFAFSRSAMHWVRQAPGKGLEWVAVISYDGSNKYYTDSVKGRFTISRDNSKNTLYLQMNTLRAEDTALYYCAKMYTTMDSFDYWGQGTLVTVSS
VL: DIQLTQSPSFLSASVGDRVTITCWASQGISSYLAWYQQKPGKAPKLLIYAASTLQSGVPSRFSGSGSGTEFTLTISSLQPEDFALYYCQQLNSYPRTFGQGTKVEIK
notes: parental antibody without Q-tag; also called parent of REGN8072
B9: REGN8072 (antibody, human IgG4 S228P, kappa, V domains shown)
VH: B8 VH
VL: DIQLTQSPSFLSASVGDRVTITCWASQGISSYLAWYQQKPGKAPKLLIYAASTLQSGVPSRFSGSGSGTEFTLTISSLQPEDFALYYCQQLNSYPRTFGQGTKVEIKR
notes: IgG4; Q-tag on light chain N-terminus; also called mAb 4; REGN8072 unconjugated Ab
B10: H1M30345N (antibody, V domains shown)
VH: EVQLVESGGGLVKPGGSLRLSCAASGFIFSRYSMNWVRQAPGKGLEWVSSMSSNSKNTYYADSVKGRFTISRDNAKNSLFLQMNTLRAEDTAVYYCARDGYTLRAFDIWGQGTMVTVSS
VL: EIVLTQSPGTLSLSPGERDTLSCRASQSIAGRYVAWYQQKPGQAPRLLIYGASSRATGIPDRFSGSGSGTDFTLTISRLEPEDFAVYYCQQYGSSPWTFGQGTKVEIK
B11: REGN9278 (antibody, human IgG4 S228P, kappa, V domains shown)
VH: B5 VH
VL: B5 VL
notes: IgG4; Q-tag on light chain N-terminus; also called mAb 19; REGN9278 unconjugated Ab
B12: H2aM30341N (antibody, V domains shown)
VH: B5 VH
VL: B10 VL with D19A, I29V, A30Y, G31Y, R32S, V34L, S54N, S94N
notes: parent of H4H30341N (REGN9278 without Q-tag); also called parent of REGN9278
B13: REGN8051 (antibody, V domains shown)
VH: QVQLVESGGGVGQPGRSLRLSCAASGFTFSRNAMHWVRQAPGKGLEWVAVISYDGSNKHYADSVKGRFTISRDNSKNTLYLEMNSLRVEDTAVYYCAKGGIPFDYWGQGTLVTVSS
VL: DIVMTQSPLSSPVTLGQPASISCRSSQSLVHFDGNTYLSWLHQRPGQPPRLLIYKISNRFSGVPDRFSGSGAGTDFTLKISRVEPEDVGVYYCMHATQFPYTFGQGTKLEIK
notes: parental antibody without Q-tag; also called parent of REGN8070
B14: REGN8070 (antibody, human IgG4 S228P, kappa, V domains shown)
VH: B13 VH
VL: DIVMTQSPLSSPVTLGQPASISCRSSQSLVHFDGNTYLSWLHQRPGQPPRLLIYKISNRFSGVPDRFSGSGAGTDFTLKISRVEPEDVGVYYCMHATQFPYTFGQGTKLEIKR
notes: IgG4; Q-tag on light chain N-terminus; also called mAb 16; REGN8070 unconjugated Ab
B15: H4H30452P (antibody, V domains shown)
VH: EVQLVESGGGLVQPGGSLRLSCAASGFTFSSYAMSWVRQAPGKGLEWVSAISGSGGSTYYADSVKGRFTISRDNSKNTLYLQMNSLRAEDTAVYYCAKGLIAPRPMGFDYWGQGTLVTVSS
VL: DIQMTQSPSSVSASVGDRVTITCRASQGINSWLAWYQQKPGKAPKLLIYAASSLQSGVPSRFSGSGSGTDFTLTISSLQPEDFATYYCHQADSFPYTFGQGTKLEIK
notes: parental antibody without Q-tag; also called parent of REGN7990
B16: REGN9267 (antibody, human IgG4 S228P, kappa)
heavy: not shown
light: EIVLTQSPGTLSLSPGERDTLSCRASQSIAGRYVAWYQQKPGQAPRLLIYGASSRATGIPDRFSGSGSGTDFTLTISRLEPEDFAVYYCQQYGSSPWTFGQGTKVEIKRTVAAPSVFIFPPSDEQLKSGTASVVCLLNNFYPREAKVQWKVDNALQSGNSQESVTEQDSKDSTYSLSSTLTLSKADYEKHKVYACEVTHQGLSSPVTKSFNRGEC
notes: IgG4; Q-tag on heavy chain N-terminus; also called mAb 5; REGN9267 unconjugated Ab

Each binder was assayed against T1, full-length human GLP1R on HEK293/CRE-Luc/hGLP1R cells (human, UniProt P43220 24-463) (assay: cell-based or functional assay).
With B1 the “CRE-luc EC50” value was 0.0629 nM, the “CRE-luc Relative Potency (% P8 EC50)” value was 55.3% and the “CRE-luc Relative Signal:Noise (% P8)” value was 87.4%. The “CRE-luc S/N” value was 284 fold.
In the case of B2, the “CRE-luc EC50” value is reported as 0.0217 nM, the “CRE-luc Relative Potency (% P8 EC50)” value is reported as 126% and the “CRE-luc Relative Signal:Noise (% P8)” value is reported as 96.4%. The “CRE-luc S/N” value was 227 fold.
B3 was tested, and the “CRE-luc EC50” value was 0.044 nM, the “CRE-luc Relative Potency (% P8 EC50)” value was 62.1% and the “CRE-luc Relative Signal:Noise (% P8)” value was 115%. The “CRE-luc S/N” value was 272 fold.
For B4, the “CRE-luc EC50” value was 0.0282 nM, the “CRE-luc Relative Potency (% P8 EC50)” value was 96.7% and the “CRE-luc Relative Signal:Noise (% P8)” value was 90.3%. The “CRE-luc S/N” value was 213 fold.

Target: T1, full-length human GLP1R on …
Test: cell-based or functional assay
Remark: another data set of the same source
For B5, the “CRE-luc EC50” value was 0.376 nM, the “CRE-luc Relative Potency (% M2361 EC50)” value was 4.3% and the “CRE-luc Relative Signal:Noise (% M2361)” value was 115%. For the same binder, the “CRE-luc S/N” value was 73.8 fold.
In the case of B6, the “CRE-luc EC50” value is reported as 0.107 nM, the “CRE-luc Relative Potency (% M2361 EC50)” value is reported as 15.1% and the “CRE-luc Relative Signal:Noise (% M2361)” value is reported as 140%. The “CRE-luc S/N” value was 90.1 fold.

Each binder was assayed against T1, full-length human GLP1R on … (assay: flow cytometry, hGLP1R cells).
In the case of B7, the EC50 is reported as 1.98 nM and the “Flow S/N” value is reported as 208 fold.
B8 was tested, and the EC50 was 0.705 nM.
B9 showed an EC50 of 1.42 nM.
Binder B10 has an EC50 of 1.64 nM.
In the case of B11, the EC50 is reported as 4.21 nM and the “Flow S/N” value is reported as 436 fold.
B12 was tested, and the EC50 was 2.75 nM and the “Flow S/N” value was 595 fold.
In the case of B13, the EC50 is reported as 7.39 nM and the “Flow S/N” value is reported as 560 fold.
B14 was tested, and the EC50 was 3.44 nM and the “Flow S/N” value was 322 fold.
B15 was tested, and the EC50 was 1.68 nM and the “Flow S/N” value was 115 fold.
B16 showed an EC50 of 0.944 nM.

Each binder was assayed against T2, full-length cynomolgus GLP1R on HEK293/CRE-Luc/mfGLP1R cells (cynomolgus, UniProt F8V479 24-463) (assay: flow cytometry, mfGLP1R cells).
T2 construct: whole, on cells
For B7, the EC50 was 0.963 nM and the “Flow S/N” value was 284 fold.
With B8 the EC50 was 2.13 nM.
In the case of B10, the EC50 is reported as 3.54 nM.
For B11, the EC50 was 2.49 nM and the “Flow S/N” value was 548 fold.
For B12, the EC50 was 2.1 nM and the “Flow S/N” value was 646 fold.
For B13, the EC50 was 4.12 nM and the “Flow S/N” value was 494 fold.
With B14 the EC50 was 2.05 nM and the “Flow S/N” value was 246 fold.
B16 gave an EC50 of 0.668 nM.

These binders were tested against T3, N-terminal ectodomain of human GLP1R expressed with a myc-myc hexahistidine tag (human, UniProt P43220 24-145, limits assumed) (assay: SPR, captured via anti-hFc, 25 C).
T3 construct: extracellular domain; also called hGLP1R-MMH; hGLP1R.mmh
T3 sequence (P43220 24-145 limits assumed): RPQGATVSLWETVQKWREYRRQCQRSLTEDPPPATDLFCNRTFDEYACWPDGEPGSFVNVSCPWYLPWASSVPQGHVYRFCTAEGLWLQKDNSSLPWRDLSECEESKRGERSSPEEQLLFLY
In the case of B5, the “90 nM hGLP1R.mmh Bound (RU)” value is reported as 55.7 RU, the Kd is reported as 1.1 nM and the koff is reported as 0.000127 s⁻¹. It also gave a kon of 116000 M⁻¹ s⁻¹ and a t1/2 of 91 min.

Target: T3, N-terminal ectodomain of human GLP1R …
Test: SPR, captured via anti-hFc, 25 C
Remark: another data set of the same source
In the case of B7, the “90 nM hGLP1R.mmh Bound (RU)” value is reported as 26 RU, the Kd is reported as 181 nM and the koff is reported as 0.039 s⁻¹. For the same binder, the kon was 215000 M⁻¹ s⁻¹ and the t1/2 was 0.3 min.
In the case of B8, the “90 nM hGLP1R.mmh Bound (RU)” value is reported as 98.7 RU, the Kd is reported as 5.49 nM and the t1/2 is reported as 9.6 min.
For B10, the “90 nM hGLP1R.mmh Bound (RU)” value was 61.7 RU, the Kd was 0.16 nM and the t1/2 was 102 min.
B12 was tested, and the “90 nM hGLP1R.mmh Bound (RU)” value was 48.4 RU, the Kd was 0.346 nM and the koff was 7.74e-05 s⁻¹. It also gave a kon of 224000 M⁻¹ s⁻¹ and a t1/2 of 149 min.
For B13, the “90 nM hGLP1R.mmh Bound (RU)” value was 73.7 RU, the Kd was 3.41 nM and the koff was 0.000211 s⁻¹. The kon was 61900 M⁻¹ s⁻¹ and the t1/2 was 54.7 min.
With B15 the “90 nM hGLP1R.mmh Bound (RU)” value was 88.9 RU, the Kd was 5.4 nM and the koff was 0.00118 s⁻¹. It also gave a kon of 218000 M⁻¹ s⁻¹ and a t1/2 of 9.8 min.
